Data from PMC6475807.

Target: ^cchexAFG3L2 (human) (UniProt Q9Y4W6)
Experiment: SEC

- stoichiometry N: 6
Substance: ^cchexAFG3L2 (from UniProt Q9Y4W6 272-797) (enzyme)
